For assay [1], the target named is Spike of live SARS-CoV-2 WT virus (SARS-CoV-2, UniProt P0DTC2 14-1273). Kind of assay: cell-based or functional assay.
Assay [2] concerns the target T1, SARS-CoV-2 S1 (40591-V08H3, Sino Biological) (SARS-CoV-2, UniProt P0DTC2 16-685).
T1 construct: domain: S1
Kind of assay: ELISA on coated protein, anti-human IgG-HRP; AUC of the OD. (An ELISA detects its analyte on a solid surface through an enzyme-linked reagent.)

Assay [3] deals with T2, SARS-CoV-2 S1+S2 (40589-V08B1, Sino Biological) (SARS-CoV-2, UniProt P0DTC2 16-1213). Described as above.
In assay [4] the target is T3, SARS-CoV-2 S2 (40590-V08B, Sino Biological) (SARS-CoV-2, UniProt P0DTC2 686-1213).
T3 construct: domain: S2
Described as above.

The target of assay [5] is T1, SARS-CoV-2 S1 (40591-V08H3, Sino …). Kind of assay: ELISA, hmAb at 10 and 1 ug/ml in duplicate; AUC.
Assay [6] addresses T2, SARS-CoV-2 S1+S2 (40589-V08B1, Sino …). Description: ELISA, hmAb at 10 and 1 ug/ml in duplicate; AUC.
Assay [7] deals with T3, SARS-CoV-2 S2 (40590-V08B, Sino …). Description: ELISA, hmAb at 10 and 1 ug/ml in duplicate; AUC.
In assay [8] the target is Spike of SARS-CoV (Urbani) on infected Vero E6 cells and live virus (SARS-CoV, UniProt P59594 14-1255). Description: immunofluorescence on infected Vero E6 cells, 1 µg/ml.
The target in assay [9] is T4, Spike of MERS-CoV on infected Vero E6 cells and live virus (MERS-CoV, UniProt K9N5Q8 18-1353).
T4 sequence: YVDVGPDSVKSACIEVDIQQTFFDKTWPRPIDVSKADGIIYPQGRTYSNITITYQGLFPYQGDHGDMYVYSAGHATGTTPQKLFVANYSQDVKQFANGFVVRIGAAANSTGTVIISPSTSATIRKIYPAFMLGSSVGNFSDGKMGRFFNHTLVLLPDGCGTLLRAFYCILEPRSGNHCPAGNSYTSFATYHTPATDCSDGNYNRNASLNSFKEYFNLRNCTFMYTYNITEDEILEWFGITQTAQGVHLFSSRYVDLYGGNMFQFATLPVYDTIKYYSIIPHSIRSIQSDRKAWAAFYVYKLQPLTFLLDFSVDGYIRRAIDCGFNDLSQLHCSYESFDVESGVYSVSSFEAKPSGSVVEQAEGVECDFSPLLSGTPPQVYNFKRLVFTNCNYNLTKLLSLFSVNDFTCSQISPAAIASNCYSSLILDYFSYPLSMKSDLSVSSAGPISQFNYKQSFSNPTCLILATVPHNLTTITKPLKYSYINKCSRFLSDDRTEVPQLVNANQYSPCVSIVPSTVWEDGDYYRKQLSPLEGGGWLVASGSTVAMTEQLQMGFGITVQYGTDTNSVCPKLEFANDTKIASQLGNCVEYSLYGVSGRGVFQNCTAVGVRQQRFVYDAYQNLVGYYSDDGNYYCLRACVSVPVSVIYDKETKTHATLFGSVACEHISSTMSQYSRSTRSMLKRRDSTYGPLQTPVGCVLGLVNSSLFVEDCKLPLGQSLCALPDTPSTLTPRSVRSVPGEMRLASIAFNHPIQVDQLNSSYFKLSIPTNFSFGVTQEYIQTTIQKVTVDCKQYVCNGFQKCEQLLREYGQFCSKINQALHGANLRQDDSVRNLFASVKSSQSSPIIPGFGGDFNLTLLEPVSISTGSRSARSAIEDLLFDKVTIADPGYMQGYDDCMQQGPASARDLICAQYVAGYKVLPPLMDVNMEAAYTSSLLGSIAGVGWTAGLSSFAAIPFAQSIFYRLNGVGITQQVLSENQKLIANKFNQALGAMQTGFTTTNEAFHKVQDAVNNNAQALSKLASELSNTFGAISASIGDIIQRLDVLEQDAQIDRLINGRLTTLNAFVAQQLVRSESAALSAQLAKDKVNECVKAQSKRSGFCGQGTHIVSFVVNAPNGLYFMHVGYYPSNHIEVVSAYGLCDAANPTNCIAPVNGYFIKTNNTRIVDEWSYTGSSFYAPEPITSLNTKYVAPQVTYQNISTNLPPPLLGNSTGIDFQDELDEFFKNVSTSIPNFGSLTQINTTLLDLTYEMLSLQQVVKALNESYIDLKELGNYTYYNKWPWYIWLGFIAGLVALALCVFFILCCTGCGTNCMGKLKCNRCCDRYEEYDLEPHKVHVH
The assay is described as above.

Assay [10] has as its target Spike of live SARS-CoV-2 WT virus (SARS-CoV-2, UniProt P0DTC2 14-1273). Kind of assay: cell-based or functional assay. This is another data set of the same source.

These results are taken from patent publication US20240270828A1 (UAB RESEARCH FOUNDATION, published 2024).

B1: 1242F4 (antibody, V domains shown)
VH: EVQLVQSGAEVKKPGTSVKVSCKASGNTVADYYMHWVRQAPRQGLEWVGLINPSGSGTAYAQNFQGRVTLTRDTSTSTLYMELGSLGSEDTAIYYCARMDSSGTYDVWGQGTLVTVSS
VL: EIVLTQSPGTLSLSPGERATLSCRASQSIRSGYLAWYQQKPGQAPRLLIRGASVKATGIPDRFSGSGSGTDFTLTISRLEPEDFVVYYCQHFASSPPRYTFGQGTKLEIK
notes: Recombinant human IgG1
Consider B1, for which the “Neutralization IC50 (µg/ml), Live Virus WT” value (from here on “Neutralization IC50 (µg/ml)”) in [1] is 36.5 µg/mL. Moreover, the “Binding AUC” value came to 1.3 in assay [2]; 27 in assay [3]; 28.5 in [4]; 1.3 in assay [5]; 27 in assay [6]; 28.5 in assay [7]. The binding result is reported as “no binding (tested: 10 ug/ml)” in assay [5], “binds” in assay [8] and “binds” in assay [9].

B2: 1250D2 (antibody, V domains shown)
VH: QVQLVQSGAEVKKPGASMKVSCKASGFTFSDYYMHWVRQAPRQGLEWMGLINPSGSGTAYAQNFQGRVTLTRDTSTSTLYMEMGSLTSDDTAVYYCARMDSSGSYDHWGQGTLVTVSS
VL: EIVLTQSPGTLSLSPGDRATLSCRASQTIRISYLAWYQQKPGQAPRLLVYGPSIRATGIPDRFSASGSGTDFTLTISRLEPEDFAVYYCQHYGSSPPRYTFGQGTKLEIK
notes: Recombinant human IgG1
For the molecule B2, the “Neutralization IC50 (µg/ml)” value in assay [1] came out at 2.36 µg/mL. In addition, the “Binding AUC” value worked out at 1.7 in assay [2]; 25.3 in [3]; 28.2 in [4]; 1.7 in assay [5]; 25.3 in assay [6]; 28.2 in [7]. The binding result was “no binding (tested: 10 ug/ml)” in assay [5], “binds” in assay [8] and “binds” in assay [9].

B3: 1242C6 (antibody, V domains shown)
VH: EVQLVQSGAEVKKPGASVKVSCKASGFTFSDYYMHWVRQAPRQGLEWMGLINPSGSGTAYAQNFQGRVTLTRDTSTSTLYMEMGSLTSDDTAVYYCARMDSSGSYDHWGQGTLVTVSS
VL: DIVMTQSPGTLSLSPGDRATLSCRASQTIRISYLAWYQQKPGQAPRLLVYGPSIRATGIPDRFSASGSGTDFTLTISRLEPEDFAVYYCQHYGSSPPRYTFGQGTKLEIK
notes: Recombinant human IgG1
B3: the “Neutralization IC50 (µg/ml)” value in [1] amounted to 5.68 µg/mL. Besides, the “Binding AUC” value in [2] came out at 0.8; in assay [3], 25.6; in assay [4], 26.7; in [5], 0.8; in assay [6] it was 25.6; in [7] it was 26.7. The binding result in assay [5] is recorded as “no binding (tested: 10 ug/ml)”; in assay [8] it was “binds”; in [9], “binds”.

B4: CV3-25 (antibody, V domains shown)
VH: QVQLVESGAEVKKPGESLKISCKGSGYTFTRYWIGWVRQMPGKGLEWMGIIYPGDSDTRYSPSFQGHVTISADKSISTAYLQWNSLKASDTAMYYCARLPQYCSNGVCQRWFDPWGQGTLVTVSS
VL: EIVLTQSPSSVSASVGDRVTITCRASQGISSWLAWYQQKPGKAPKLLIYAASSLQSGVPSRFSGSGSGTDFTLTISSLQPEDFATYYCQQGNSFPYTFGQGTNLEIK
Consider B4, for which, in assay [10], the “Neutralization IC50 (µg/ml)” value was found to be 12.3 µg/mL.
